Tests used:
[1] = target: T1, Rabbit TNFα (rabbit, UniProt P04924 80-235, limits assumed); assay: cross-reactivity binding, B of B/N; - denotes no binding/neutralisation activity observed
T1 sequence (looked up): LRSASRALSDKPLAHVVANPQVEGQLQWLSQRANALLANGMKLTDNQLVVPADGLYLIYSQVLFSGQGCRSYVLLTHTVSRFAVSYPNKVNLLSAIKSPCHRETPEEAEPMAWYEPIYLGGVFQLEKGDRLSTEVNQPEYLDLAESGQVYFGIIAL

[2] = target: Pig TNFα (pig, UniProt P23563 77-232); assay: as above
[3] = target: T2, Rat TNFα (rat, UniProt P16599 80-235); assay: as above
T2 sequence (looked up): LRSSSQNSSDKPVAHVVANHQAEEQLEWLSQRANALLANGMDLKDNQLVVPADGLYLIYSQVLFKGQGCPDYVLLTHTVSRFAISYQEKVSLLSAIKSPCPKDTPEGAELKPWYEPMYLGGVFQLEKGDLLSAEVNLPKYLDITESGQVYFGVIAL

[4] = target: T3, Mouse TNF-alpha (mouse, UniProt P06804 80-235); assay: as above
T3 construct: also called mouse TNFα
T3 sequence (looked up): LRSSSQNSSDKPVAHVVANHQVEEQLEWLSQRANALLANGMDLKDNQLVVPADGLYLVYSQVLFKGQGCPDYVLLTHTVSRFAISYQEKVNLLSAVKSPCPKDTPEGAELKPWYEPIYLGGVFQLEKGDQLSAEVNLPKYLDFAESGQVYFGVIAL

[5] = target: T4, Human TNF-β (human, UniProt P01374 35-205); assay: as above
T4 construct: also called human TNFB
T4 sequence (looked up): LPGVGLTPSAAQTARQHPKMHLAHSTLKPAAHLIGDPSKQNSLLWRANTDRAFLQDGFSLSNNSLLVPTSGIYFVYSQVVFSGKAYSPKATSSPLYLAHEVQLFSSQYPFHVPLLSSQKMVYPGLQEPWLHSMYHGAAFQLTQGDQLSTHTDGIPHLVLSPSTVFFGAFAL

[6] = target: T5, human ICOS ligand (human, UniProt O75144 19-258, limits assumed); assay: hICOSL neutralisation assay (lower left panel): blocking of hICOSL binding to its CHO-expressed receptor, absorbance at 450 nm
T5 construct: also called hICOSL
T5 sequence (looked up): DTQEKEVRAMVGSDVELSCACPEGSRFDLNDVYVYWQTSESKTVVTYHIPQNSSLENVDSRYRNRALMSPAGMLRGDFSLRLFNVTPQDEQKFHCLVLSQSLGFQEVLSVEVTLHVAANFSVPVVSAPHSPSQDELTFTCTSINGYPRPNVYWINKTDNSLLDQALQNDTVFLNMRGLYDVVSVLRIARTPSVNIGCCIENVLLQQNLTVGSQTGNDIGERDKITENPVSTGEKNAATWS

[7] = target: T6, human Tumour Necrosis Factor alpha (human, UniProt P01375 77-233); assay: binding ELISA on 1 µg/ml hTNF-α, absorbance at 450 nm
T6 construct: Amine-coupled to the chip for BIAcore, biotinylated on streptavidin sensors for Octet, coated at 1 µg/ml for ELISA; also called hTNFα; rhTNFα
T6 sequence (P01375 77-233 limits assumed): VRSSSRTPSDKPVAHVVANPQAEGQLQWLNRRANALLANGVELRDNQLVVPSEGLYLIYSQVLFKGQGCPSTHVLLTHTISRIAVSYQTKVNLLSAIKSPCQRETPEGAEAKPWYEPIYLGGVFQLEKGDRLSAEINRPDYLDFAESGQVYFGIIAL

[8] = target: T6, human Tumour Necrosis Factor alpha; assay: kinetics on hTNFα; instrument (BIAcore T200 or Octet) not stated for this column
[9] = target: T7, mouse ICOS ligand (mouse, UniProt Q9JHJ8 47-279, limits assumed); assay: mICOSL neutralisation assay (lower right panel): blocking of mICOSL binding to its CHO-expressed receptor, absorbance at 450 nm
T7 construct: it may be the same Fc chimera as m48; also called mICOSL
T7 sequence (looked up): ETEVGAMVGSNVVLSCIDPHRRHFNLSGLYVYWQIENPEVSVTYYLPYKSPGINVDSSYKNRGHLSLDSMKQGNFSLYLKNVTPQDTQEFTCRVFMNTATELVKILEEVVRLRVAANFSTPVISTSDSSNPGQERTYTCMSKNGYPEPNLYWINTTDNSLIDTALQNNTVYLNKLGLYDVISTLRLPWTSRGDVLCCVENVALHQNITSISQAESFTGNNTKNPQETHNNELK

[10] = target: T6, human Tumour Necrosis Factor alpha; assay: binding ELISA on TNFα (Anti-TNF NAR Dimers Binding ELISA, post dialysis), absorbance at 450 nm
[11] = target: T6, human Tumour Necrosis Factor alpha; assay: BLI, Octet RED96, biotinylated hTNF-α on streptavidin sensors, top concentration 1 µM
[12] = target: T6, human Tumour Necrosis Factor alpha; assay: binding ELISA on human TNF-alpha, OD 450
[13] = target: T8, human serum albumin (human, UniProt P02768 25-609); assay: binding ELISA on human serum albumin (HSA), OD 450
T8 construct: also called HSA

Chain of Pig TNFα (P23563 77-232 limits assumed): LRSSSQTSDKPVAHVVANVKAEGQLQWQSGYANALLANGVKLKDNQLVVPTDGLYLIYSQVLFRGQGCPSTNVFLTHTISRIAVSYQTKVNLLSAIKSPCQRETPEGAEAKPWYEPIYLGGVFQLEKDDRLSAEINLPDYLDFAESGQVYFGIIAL

B1: TNF VNAR D1 (VNAR)
VNAR: ARVDQTPQTITKETGESLTINCVLRDSHCATSSTYWYRKKSGSTNEESISKGGRYVETVNSGSKSFSLRINDLTVEDSGTYRCASECQYGLAEYDVYGGGTVVTVNA
notes: Nurse shark VNAR single domain; also called VNAR D1 (wt); VNAR anti-hTNFa-D1
binding result [1]: no binding
binding result [2]: no binding
binding result [3]: no binding
binding result [4]: no binding
binding result [5]: no binding

B2: VNAR-TNFR1 Fc bi-functional construct, Format 4: anti-hICOSL VNAR (2D4) (Fc fusion)
chain: TRVDQTPRTATKETGESLTINCVLTDTDYGLFSTSWFRKNPGTTDWERMSIGGRYVESVNKGAKSFSLRIKDLTVADSATYYCKAFTWPWEWPDRWFRPWYDGAGTVLTVN
IC50 (read off the curve) [6]: ~0.4 µg/mL

B3: SoloMER™ VNAR D1-v4 (VNAR)
VNAR: ARVDQSPSSLSASVGDRVTITCVLRDSHCATSSTYWYRKKPGSTNEESISKGGRFSGSGSSGSKSFTLTISSLQPEDFATYYCASECQYGLAEYDVFGQGTKVEIKH
notes: Humanised D1 with His tag
EC50 (read off the curve) [7]: ~0.1 µg/mL

B4: TNF VNAR D1-BA11-B4 (VNAR)
chain: ARVDQTPQTITKETGESLTINCVLRDSHCATSSTYWYRKKSGSTNEESISKGGRYVETVNSGSKSFSLRINDLTVEDSGTYRCASECQYGLAEYDVYGGGTVVTVNGGGGSGGGGSGGGGSGGGGSGAHSTRVDQSPSSLSASVGDRVTITCVLTDTSYPLYSTYWYRKNPGSSNKEQISISGRYSESVNKGTKSFTLTISSLQPEDSATYYCRAMSTNIWTGDGAGTKVEIKGGGGSGGGGSGGGGSGGGGSGAHSARVDQTPQTITKETGESLTINCVLRDSNCALSSMYWYRKKSGSTNEESISKGGRYVETVNSGSKSFSLRINDLTVEDSGTYRCKVYIPCIDELVYMISGGTSGPIHDVYGGGTVVTVNHHHHHHHEQKLISEEDL
notes: Tandem VNAR trimer with anti-HSA BA11 in the middle, His and Myc tags
koff [8]: ~0.0006 s⁻¹

B5: VNAR-TNFR1 Fc bi-functional construct, Format 2: anti-mICOSL VNAR (CC3) (Fc fusion)
chain: TRVDQTPRTATKETGESLTINCVLTDTEYGLFSTSWFRKNPGTTDWERMSIGGRYVESVNKGAKSFSLRIKDLTVADSATYYCKALGWWPPAFPHWYDGAGTVLTVN
IC50 (read off the curve) [9]: ~0.2 µg/mL

B6: TNF VNAR DIMER D1-D1 (VNAR)
chain: ARVDQTPQTITKETGESLTINCVLRDSHCATSSTYWYRKKSGSTNEESISKGGRYVETVNSGSKSFSLRINDLTVEDSGTYRCASECQYGLAEYDVYGGGTVVTVNGGGGSGGGGGSGAHSARVDQTPQTITKETGESLTINCVLRDSHCATSSTYWYRKKSGSTNEESISKGGRYVETVNSGSKSFSLRINDLTVEDSGTYRCASECQYGLAEYDVYGGGTVVTVNAAAHHHHHHGAAESKLISEEDL
EC50 (read off the curve) [10]: ~0.009 µg/mL

B7: BB10 (VNAR)
VNAR: TRVDQSPSSLSASVGDRVTITCVLTDTSYPLYSTYWYRKNPGSSNKEQISISGRYSESVNKGTKSFTLTISSLQPEDFATYYCRAMGTNFWTGDGAGTKVEIK
Kd [11]: > 1000 nM

B8: TNF S17-Quad-X™ (Fc fusion)
chain: ASVNQTPRTATKETGESLTINCVLTDTHAKVFTTSWFRKNPGTTDWERMSIGGRYVESVNKGAKSFSLRIKDLTVADSATYICRAGGYLSQPRVYWDVYGAGTVLTVNGGGGSGGGGRTEPRGPTIKPCPPCKCPAPNLLGGPSVFIFPPKIKDVLMISLSPIVTCVVVDVSEDDPDVQISWFVNNVEVHTAQTQTHREDYNSTLRVVSALPIQHQDWMSGKEFKCKVNNKDLPAPIERTISKPKGSVRAPQVYVLPPPEEEMTKKQVTLTCMVTDFMPEDIYVEWTNNGKTELNYKNTEPVLDSDGSYFMYSKLRVEKKNWVERNSYSCSVVHEGLHNHHTTKSFSRTPGKGGGGSGGGGSGGGGSGGGGSGAHSASVNQTPRTATKETGESLTINCVLTDTHAKVFTTSWFRKNPGTTDWERMSIGGRYVESVNKGAKSFSLRIKDLTVADSATYICRAGGYLSQPRVYWDVYGAGTVLTVN
notes: S17, mouse IgG2a Fc and S17 in one chain; also called S17-Fc-S17; S17-Fc-S17 (Quad-X™)
binding result [12]: no binding (tested: 5 µg/ml)
binding result [13]: no binding (tested: 5 µg/ml)

From patent US20250346659A1 (ELASMOGEN, published 2025)
